Results reported in patent US20180092964A1.

Molecular target: VLDL receptor (VLDLR) on U937 clone 10 cells (UniProt P98155)
Assay: cell-based or functional assay

Substance: low endotoxin recombinant RAP (LDL Receptor-Associated Protein) (from UniProt P30533 35-357)
- HIV-1 infectivity of U937 clone 10 cells preconditioned with RAP for 15 min, then with α1PI, and cultured for 8 days: 93%
